US10155985B2, “Evaluation of eosinophilic esophagitis” (CHILDREN'S HOSPITAL MEDICAL CENTER, priority 2004, dated 2018)

B1: SEQ_ID_#142 (nucleic acid, listed as Homo sapiens)
DNA: TAGAGGTTAAATGACCCCATTTGTGGGGTGGTTTATTGTTAAAATGATTAAACATGCTAAAATCACATGGAGTGGCTATTCCACTTTTGCCCTGACTCCATAGTGGGGCAAATGGGAACTACAGGAGTCACTTGGTTTGTGTGGCCTCTGGGGATGGTTAGACTTGGAGGGTTAGCGGTGAGCAGGTTAGCAAAGCCCCAAGCATCCTTCATGTAGTACACTTTTCCCAGCAGTAAAAAAATTCAGAGATTTCCCCCTTCTTCACTTTTCTTTCCTCCCTATATGTGCCCTACTTCTCATTCTCCTATGGCCCTGGAACCTCTTATGCTTCTGCCCGTTATGGTCTTAGACTAGATGATGAGGGAGGCTTTTCCTTGACACCAGCATTCCAGTCT
B2: SEQ_ID_#95 (nucleic acid, listed as Homo sapiens)
DNA: TTTTTTTTTTTTTTTTGTAATAAGAAAAAATTTTAGTAAAAGAAAATTCTCACAAAGTTTTTAGTAAATGAGATTATGTTCATGAATGTGTTTGGTAAACTGTAACTCCACAGGGCAGCTCCAAGTCATGAGTGTGCAGTTGGGCTCAAACCGTACAGAAGTCATTTCCAGGATGTTATCCTTACTCTTCTAGGAGCCCACATCGCCCAGATGAGGAAGGCCACCGCTGCCGCCAACGCCGACTACCGTGAGCAGCTTCCTGCTCCCCTGTCGTCGCCTCTGCGGTCGGGGCACTTTCCCCAAAGCGCT
B3: SEQ_ID_#116 (nucleic acid, listed as Homo sapiens)
DNA: TGTAAGTATTTACTTTTAATTCTACTTTCAGGTGGAAAATGATGAGAACTCCTTAGGGGGTCTTTAATCTCAAGATTGTCAGTCTAGCTAAATATAATTAAAAGACTGCCTTCTGTGTTTACTGCTGAATAATGATGAGAAAAAATAGTGTAATTTTTTTAATGTTTGCTAACCAGGTTCTCCATAGACAACTTTAGTCAGTGGTCATAATATTGTAGATTTAGCTGCAAATTTAAGAGGTGAGAAAAGGAATATGTTTGTTCCTAGGTTTGTTCTAATCAGACCAATTCAAAGTTAATATTGCAAGGCTATACAACATCTATCTCATCCAAATTGTTGTTTTATAGCTTTCAAACATCCTTTTTAACTTCTCTGCTCTGCCACTCATCATTCCATTAGGGCAAAAAGAAACAAAACTTAAGCTTTGAAGCTCATTAGATACATACTTTAAAAAATAGATCAAAATAAGCAAAAAGTACAATTTGTATTATCTGCATGAGTTTCTAGTTATCAGTGACCTAAGCTAAGTCTGGCTTTTAGTAGCAAGATTTTAGCATACCAGGCTCTCAAGGGAGGTATTTCTCAGTATTATTTCAATTTTTAAAGGATAAAGACATGTTCTAATTTAAATTTATTGAAATTTGATAATCCATGTGACTTTTCAGTACTGTGCTTGGTGCTTTAGATGGAAATAGGATAAATATCTGACTCAATCATCCAGGAGTCATGATACATACTTTACAATCTGATTTA
B4: SEQ_ID_#185 (nucleic acid, listed as Homo sapiens)
DNA: AATAATTAATGCAATTTAATGACAATAAATAAACTTCAAAGTCCCGCCAAAACCAGCAGAACCTCATCAAAGCAAAAGAAACAAGCTTCTTTCCAGCTCAGAGGTGAAGCGCTGCAGATGGCCAGTGTTTCATCTCGAGGGGAGGGTTGGGAAAGGCTGTGGAATGAGGG
B5: SEQ_ID_#165 (nucleic acid, listed as Homo sapiens)
DNA: CCAAAAAGTCAGTTGATATGACACAGTCACAGACAGAACAGTCAGCAGCCCAAGAAAGGTCCTCACGGCTGCTGTGCTGGGTAGCACTTGCCATCCAGTTTCTAGAGTGATGAAATGCTCTGTCTGTACCGTTCAATACAGTAGGCACTGGCACTAGCCACATGTGCCAGCTAAGCACTTGAAATGTGGCCAGTGCAATAAGGAATTGAACTTTTAATTGCATTTAATAAACTGTATGTAAATAG
B6: SEQ_ID_#19 (nucleic acid, listed as Homo sapiens)
DNA: ATGGCCTGGACCCCTCTGCTCCTCATGTTCCTCTCTCATTGCTCAGGTGAGAACTGGTTTTAGGTGTCTAGGGTTAGCTCCTTAGCTTGCGTCAGCCTCTCTGGCTCAGATCCCCAAGACATGTATCTCTAGTTCCTGCCCCAGCCCCCATGAGTGTCTGTGCTTGCAGGTTCCCTCTCCCAGCCTGTGCTGACTCAGATGACCTCACTCTCTGCATCTCCGGGAGCATGAGCCAGACTTACCTGCACCCTGAGCAGTGGCTTCAGAGTTGGTAACTTTGCAATATAGTGGTCAGCTGAAGCCAGGCAGCCGTCCCAGGTGTCTCCTGAGATACTACTCAGACTCAAATATCACTCAGCACCCTGGGGTTCCCATCCACTTCTCTGGATCCAATGATACATTAGCCAATGCAGGGATTCTGTACATTCCTGGGCTGAAGCCTGAGGGTGAGGCTATTACTGTTGTACGTGTCACAGCAGCTCCAAGT
B7: SEQ_ID_#1002 (nucleic acid, listed as Homo sapiens)
DNA: CCACCGCCTATCCCAAAACCTATAAGAACCAATGATAATCCCACTACCCTTTGATGACTCTCTTTTTGGACTCAGCCCGCCTGCACCCAGGTGAAATAAACAGCCTCGTTGCTCACACAAAGCCTGTTTGGTGGTCTCTTCACACGGACGCATGAGACATTTGGTGCCGAAGACCCGGGTCAGCGGGACTCCTTCGGGACAGCAGTCCCCTGTCCTCACCTTCACTCCCTGAAGAGATCCACCTACAACCTCAGGTCCGCAGACCAACCAGCCCAAGGAACATCTCACTGATTTTAAATTGGACTCTCTTCACACGGGCGAGTGTGACATTTGGTGCCGAAGACCCAGGACAGGAGGACTCCTTTGGGAGACCGGTCTCCTGTCCTCGCCCTCACTCCGTGAGGAGATCCACCTGCAACCTCAGGTCCTCAGACCAACCAGCCGAAGGAACATCTCACCAATTTCAAATGGGCTTAGCGGCTGAAGACTGATGCTGCCTGGTCGCCTCGGAAGCCCCCTGGACCATCATGGACGCCGAGCTTCGGGTAACTCTCACAGTGGAGGCCTGTTTGGTGACTTTCTTCGCACCGACGTGCGTGACACAATGTTTGCAGAATATGAAGGTGGCTGTCACGTGGTCTGGGCTTCCTGGAGGTTTGAGCTGGGAGCTGAAGCCCCGTAGGAGTTCTGTAAGTCAAAAGGGAAGAGAAGAGCATTCCACGTAGAGAAAAGAATCTGTGCTCCAGGCGCGGTGGCTCACGATTGTAATCTCAGCACTTGGTGTCAGGCCTCTGAGCCCAGGCTAAGCCATTGTATATCCCCCGTGACCTGCATGTATACATCCAGATGGCCTGAAGCAGCTGAAGAACCACAAGAGAAGTGAAAATAGCCAGTTCCTGCCTTAACTGATGTCATTCCACCATTGTGATTTGTTCCTGTCCCACCTTTACTGATCAATTAACTTTGTGACATTTCTTCTCCTGGACAATGAGTCTCATGATCTCCCTACCCAGCACCTTGTGACCCCTGCCCCTGCCCGCAAGAGATAACCATCTTTAACTGTAACTTTCCACTACCTACCTAAATCCTGTAAAAACTGACCCACCCCCTATCTCCCTTTGCTGACTCCTTTTTCGGACTCAGCCCGCCTGCACCCAGGTGATTAAAAAGCTTTATTGTTCACATG
B8: SEQ_ID_#1005 (nucleic acid, listed as Homo sapiens)
DNA: ATAGATTCTGCAGCATGGCAAACAGGTAATACTTAAAGCCAAATGGCGCTTCGGCTTATTTCAATACTATTTTTATGTAAAGATCAGTGTGAGAATATCAGCTCAATGGTTGAGGTTCTAGGATCAATTGCCTTGCAGTTTTTATACTAGCTTTTGATATCTTTTGCCTATTAAAACACTTTGTGAACTTTAGAATTAAGGAACTAAAAAATATTTACCATAAGTCCAAGTTATGACTTGAGGATCATATCTGATTAGAACTGTGGCAGAACTACTAGAAAAAGATTCTGCAAATTGGTTTCAGTGATTCTTGTTGATGTAATCAACAAGATTACATAATCAACAATAATAGATATTGAACCAAAATGATCCTTTTTTTAAGTTTAAGGTTATTTAGTTTCTCTTGCAAGGATATGATTTAGTCCTAATAGGGAATATGTGTATGTACTGGTGGGGAGCAGTGGGCTTGCTGCATGTATGTATGTTTTAAAATTAATAAATATTATCTTACTGGGCTCCATAGATGGTTTAAATTTAGATTTATTTAATTAAGAGGCTATAAATAATATATACACTACTGTATGGTATTTAACAAATAAGTTTTAAATCTGTTAATTCTTCTGGAAAACTTTGGATGTAGGGATGGCAAGCTAATTTTCTTGTATAGCTGGTGATATAAGCAGCATGGTCATAAAATAACATTTCTTATAAAGAC
B9: SEQ_ID_#1069 (nucleic acid, listed as Homo sapiens)
DNA: GCCGCCTCCTCCTGGGCTGGGCCCGCGGTGTCTCGTCCCCTCGCGGAGCCGCTCCTGCCGCCGCCGCCGCCGCCTCCTCATTCATCCTCGTGCACCATAGGCGGCACAGGCACCAAGATGTCCAACCGAGTGGTCTGCCGAGAAGCCAGTCACGCCGGGAGCTGGTACACAGCCTCAGGACCGCAGCTGAATGCACAGCTAGAAGGTTGGCTTTCACAAGTACAGTCTACAAAAAGACCTGCTAGAGCCATTATTGCCCCCCATGCAGGATATACGTACTGTGGGTCTTGTGCTGCCCATGCTTATAAACAAGTGGATCCGTCTATTACCCGGAGAATTTTCATCCTTGGGCCTTCTCATCATGTGCCCCTCTCTCGATGTGCACTTTCCAGTGTGGATATATATAGGACACCTCTGTATGACCTTCGTATTGACCAAAAGATTTACGGAGAACTGTGGAAGACAGGAATGTTTGAACGCATGTCTCTGCAGACAGATGAAGATGAACACAGTATTGAAATGCATTTGCCTTATACAGCTAAAGCCATGGAAAGCCATAAGGATGAGTTTACCATTATTCCTGTACTGGTTGGAGCTCTGAGTGAGTCAAAAGAACAGGAATTCGGAAAACTCTTCAGTAAATATCTAGCGGATCCTAGTAATCTCTTTGTGGTTTCTTCTGATTTCTGCCATTGGGGTCAAAGGTTCCGTTACAGTTACTATGATGAATCCCAGGGGGAGATTTATAGATCCATTGAACATCTAGATAAAATGGGTATGAGTATTATAGAACAATTAGACCCTGTATCTTTTAGCAATTACTTGAAGAAATACCATAATACTATATGTGGAAGACATCCCATTGGGGTGTTATTAAATGCTATCACAGAGCTCCAGAAGAATGGAATGAATATGAGTTTTTCGTTTTTGAATTATGCCCAGTCGAGCCAGTGTAGAAACTGGCAAGACAGTTCAGTGAGTTATGCAGCTGGAGCACTCACGGTCCACTGAAGCTCTGAATCCTCAGGGATGCCACCTGCACATTCTCATACTCTGTCCGGGGTCCCAGCCTAGCCTTTACCACGATACTGGTCCTGGTTTGGGGGGATTCTGAAACCTCAAACTAATAGAACTTTCTTCTCTTTTTTTCTAGTAGGTGTAGTCCTTCCTTAATTTCAACTCATTAAAAAATGCTTTATAGTTTAGGGCAGTGGAAGGAAGGCTGGCATCAAAATATTTTGATCAAAAAAGATGACAATGTAAAGGCTCAGTTGTGGCAGACAGTTTTTT

test system: EE transcriptome; experiment: Genome-wide microarray transcript profiling of esophageal biopsies, EE patients vs normal individuals (EE transcriptome); settings: transcript level in esophageal biopsies of EE patients (n=76) compared to normal individuals (n=13); Affymetrix Human Genome U133 plus 2; p<0.01
Method in brief: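 Distal esophageal biopsies from EE patients (n=76; >24 eosinophils/hpf, basal hyperplasia) and normal controls (n=13; 0 eosinophils/hpf) profiled on Affymetrix Human Genome U133 plus 2 chips. Expression by absolute call and average difference, global scaling; transcriptome genes defined as p<0.01 (Welch t-test) and ≥1.5-fold change.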

| Molecule | Fold Change |
| --- | --- |
| B1 | 2.896 |
| B2 | 3.633 |
| B3 | 3.363 |
| B4 | 2.62 |
| B5 | 2.732 |
| B6 | 10.29 |

same assay, conditions: transcript level in esophageal biopsies of EE patients compared to normal individuals (NL); Affymetrix Human Genome U133 plus 2; p<0.01; >1 up-regulated, <1 down-regulated

| Molecule | Fold Change |
| --- | --- |
| B7 | 0.612 |
| B8 | 0.61 |
| B9 | 0.587 |
